How the values were obtained:
[1] = molecular target: T1, toxin B fragment 4 (receptor-binding domain, amino acids 1777 to 2366 of toxin B) (Clostridium difficile, UniProt P18177 1777-2366); assay: Western blotting on E. coli lysates of toxin B fragments
T1 construct: also called RB domain

[2] = molecular target: Clostridium difficile toxin B (Clostridium difficile, UniProt P18177 2-2366); assay: cell-based or functional assay
[3] = molecular target: T2, Clostridium difficile toxin A (Clostridium difficile, UniProt P16154 1-2710); assay: SPR, Biacore T200, biotinylated toxin A on sensor chip CAP, antibody flowed
T2 construct: also called TcdA; C. difficile toxin A

[4] = molecular target: T2, Clostridium difficile toxin A; assay: cell-based or functional assay
[5] = molecular target: T3, toxin A fragment 4 (receptor-binding domain, amino acids 1853 to 2710 of toxin A) (Clostridium difficile, UniProt P16154 1853-2710); assay: Western blotting on E. coli lysates of toxin A fragments
T3 construct: also called RB domain

T2 sequence (P16154 whole entry): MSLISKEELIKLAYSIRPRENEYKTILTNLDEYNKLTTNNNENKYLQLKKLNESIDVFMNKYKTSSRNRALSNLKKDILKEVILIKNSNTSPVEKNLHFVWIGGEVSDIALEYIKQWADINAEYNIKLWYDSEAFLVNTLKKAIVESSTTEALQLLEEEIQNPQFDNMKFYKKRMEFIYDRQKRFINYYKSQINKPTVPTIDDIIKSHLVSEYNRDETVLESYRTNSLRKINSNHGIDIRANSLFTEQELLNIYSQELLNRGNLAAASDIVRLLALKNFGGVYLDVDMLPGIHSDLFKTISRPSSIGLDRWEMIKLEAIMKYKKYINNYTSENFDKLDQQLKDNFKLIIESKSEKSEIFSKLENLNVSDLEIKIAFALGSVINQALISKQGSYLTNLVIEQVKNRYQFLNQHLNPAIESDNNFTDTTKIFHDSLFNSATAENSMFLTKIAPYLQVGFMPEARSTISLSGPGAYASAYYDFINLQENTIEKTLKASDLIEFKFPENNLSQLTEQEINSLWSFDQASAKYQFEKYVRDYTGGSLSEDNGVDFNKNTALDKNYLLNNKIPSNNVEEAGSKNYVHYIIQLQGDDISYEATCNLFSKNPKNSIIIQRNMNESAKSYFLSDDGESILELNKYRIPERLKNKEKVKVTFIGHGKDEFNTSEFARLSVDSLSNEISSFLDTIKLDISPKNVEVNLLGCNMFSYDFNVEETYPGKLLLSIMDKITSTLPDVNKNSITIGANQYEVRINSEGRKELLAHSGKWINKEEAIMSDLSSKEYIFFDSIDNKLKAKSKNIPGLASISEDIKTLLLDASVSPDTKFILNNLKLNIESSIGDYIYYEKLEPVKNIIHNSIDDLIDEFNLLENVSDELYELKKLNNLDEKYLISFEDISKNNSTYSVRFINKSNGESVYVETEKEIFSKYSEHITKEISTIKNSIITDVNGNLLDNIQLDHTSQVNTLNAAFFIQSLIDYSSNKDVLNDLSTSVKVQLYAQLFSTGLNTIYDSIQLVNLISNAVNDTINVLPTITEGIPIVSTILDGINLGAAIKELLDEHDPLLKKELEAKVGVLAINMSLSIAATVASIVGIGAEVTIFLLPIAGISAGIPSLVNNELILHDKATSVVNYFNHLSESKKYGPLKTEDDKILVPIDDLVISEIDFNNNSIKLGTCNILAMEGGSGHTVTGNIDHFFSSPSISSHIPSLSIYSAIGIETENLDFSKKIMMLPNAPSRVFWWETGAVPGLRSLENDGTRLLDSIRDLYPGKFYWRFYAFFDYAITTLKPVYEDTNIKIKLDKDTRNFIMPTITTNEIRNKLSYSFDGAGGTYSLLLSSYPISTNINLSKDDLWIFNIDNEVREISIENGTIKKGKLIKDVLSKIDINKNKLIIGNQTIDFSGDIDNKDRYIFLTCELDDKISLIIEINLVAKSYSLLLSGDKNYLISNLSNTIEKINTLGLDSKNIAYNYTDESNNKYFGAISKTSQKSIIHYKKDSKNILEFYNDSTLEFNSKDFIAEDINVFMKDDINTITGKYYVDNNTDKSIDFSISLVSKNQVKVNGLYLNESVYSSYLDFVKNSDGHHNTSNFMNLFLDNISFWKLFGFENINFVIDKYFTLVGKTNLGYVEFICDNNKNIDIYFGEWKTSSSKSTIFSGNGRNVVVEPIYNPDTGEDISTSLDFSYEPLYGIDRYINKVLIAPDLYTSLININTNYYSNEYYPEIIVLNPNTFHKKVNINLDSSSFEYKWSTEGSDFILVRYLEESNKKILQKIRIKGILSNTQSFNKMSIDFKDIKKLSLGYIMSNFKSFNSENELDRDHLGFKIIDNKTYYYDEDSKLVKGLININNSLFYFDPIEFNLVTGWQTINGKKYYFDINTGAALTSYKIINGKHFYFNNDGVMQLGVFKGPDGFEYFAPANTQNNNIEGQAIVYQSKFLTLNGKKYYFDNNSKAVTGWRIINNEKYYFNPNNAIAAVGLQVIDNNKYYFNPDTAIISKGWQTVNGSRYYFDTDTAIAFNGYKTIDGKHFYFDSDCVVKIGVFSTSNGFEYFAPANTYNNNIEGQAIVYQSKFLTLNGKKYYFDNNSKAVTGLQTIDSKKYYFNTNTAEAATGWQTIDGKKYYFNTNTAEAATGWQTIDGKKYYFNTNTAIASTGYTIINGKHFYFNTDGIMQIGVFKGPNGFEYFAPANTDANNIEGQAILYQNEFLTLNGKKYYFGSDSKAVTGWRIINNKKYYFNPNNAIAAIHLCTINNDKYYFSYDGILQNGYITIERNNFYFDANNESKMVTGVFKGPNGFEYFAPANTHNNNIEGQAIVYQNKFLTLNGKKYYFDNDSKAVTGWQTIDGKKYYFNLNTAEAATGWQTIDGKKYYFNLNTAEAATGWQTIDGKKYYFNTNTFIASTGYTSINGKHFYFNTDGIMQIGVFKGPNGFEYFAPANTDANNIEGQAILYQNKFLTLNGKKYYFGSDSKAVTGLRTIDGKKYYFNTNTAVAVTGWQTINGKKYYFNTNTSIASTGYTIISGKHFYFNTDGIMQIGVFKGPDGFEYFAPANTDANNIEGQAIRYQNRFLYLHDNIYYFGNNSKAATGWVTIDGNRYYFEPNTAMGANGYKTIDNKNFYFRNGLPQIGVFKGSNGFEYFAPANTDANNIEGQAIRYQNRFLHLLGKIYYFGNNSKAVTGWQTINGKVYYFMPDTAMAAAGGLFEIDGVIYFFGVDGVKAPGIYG
Clostridium difficile toxin B, sequence (P18177 2-2366 limits assumed): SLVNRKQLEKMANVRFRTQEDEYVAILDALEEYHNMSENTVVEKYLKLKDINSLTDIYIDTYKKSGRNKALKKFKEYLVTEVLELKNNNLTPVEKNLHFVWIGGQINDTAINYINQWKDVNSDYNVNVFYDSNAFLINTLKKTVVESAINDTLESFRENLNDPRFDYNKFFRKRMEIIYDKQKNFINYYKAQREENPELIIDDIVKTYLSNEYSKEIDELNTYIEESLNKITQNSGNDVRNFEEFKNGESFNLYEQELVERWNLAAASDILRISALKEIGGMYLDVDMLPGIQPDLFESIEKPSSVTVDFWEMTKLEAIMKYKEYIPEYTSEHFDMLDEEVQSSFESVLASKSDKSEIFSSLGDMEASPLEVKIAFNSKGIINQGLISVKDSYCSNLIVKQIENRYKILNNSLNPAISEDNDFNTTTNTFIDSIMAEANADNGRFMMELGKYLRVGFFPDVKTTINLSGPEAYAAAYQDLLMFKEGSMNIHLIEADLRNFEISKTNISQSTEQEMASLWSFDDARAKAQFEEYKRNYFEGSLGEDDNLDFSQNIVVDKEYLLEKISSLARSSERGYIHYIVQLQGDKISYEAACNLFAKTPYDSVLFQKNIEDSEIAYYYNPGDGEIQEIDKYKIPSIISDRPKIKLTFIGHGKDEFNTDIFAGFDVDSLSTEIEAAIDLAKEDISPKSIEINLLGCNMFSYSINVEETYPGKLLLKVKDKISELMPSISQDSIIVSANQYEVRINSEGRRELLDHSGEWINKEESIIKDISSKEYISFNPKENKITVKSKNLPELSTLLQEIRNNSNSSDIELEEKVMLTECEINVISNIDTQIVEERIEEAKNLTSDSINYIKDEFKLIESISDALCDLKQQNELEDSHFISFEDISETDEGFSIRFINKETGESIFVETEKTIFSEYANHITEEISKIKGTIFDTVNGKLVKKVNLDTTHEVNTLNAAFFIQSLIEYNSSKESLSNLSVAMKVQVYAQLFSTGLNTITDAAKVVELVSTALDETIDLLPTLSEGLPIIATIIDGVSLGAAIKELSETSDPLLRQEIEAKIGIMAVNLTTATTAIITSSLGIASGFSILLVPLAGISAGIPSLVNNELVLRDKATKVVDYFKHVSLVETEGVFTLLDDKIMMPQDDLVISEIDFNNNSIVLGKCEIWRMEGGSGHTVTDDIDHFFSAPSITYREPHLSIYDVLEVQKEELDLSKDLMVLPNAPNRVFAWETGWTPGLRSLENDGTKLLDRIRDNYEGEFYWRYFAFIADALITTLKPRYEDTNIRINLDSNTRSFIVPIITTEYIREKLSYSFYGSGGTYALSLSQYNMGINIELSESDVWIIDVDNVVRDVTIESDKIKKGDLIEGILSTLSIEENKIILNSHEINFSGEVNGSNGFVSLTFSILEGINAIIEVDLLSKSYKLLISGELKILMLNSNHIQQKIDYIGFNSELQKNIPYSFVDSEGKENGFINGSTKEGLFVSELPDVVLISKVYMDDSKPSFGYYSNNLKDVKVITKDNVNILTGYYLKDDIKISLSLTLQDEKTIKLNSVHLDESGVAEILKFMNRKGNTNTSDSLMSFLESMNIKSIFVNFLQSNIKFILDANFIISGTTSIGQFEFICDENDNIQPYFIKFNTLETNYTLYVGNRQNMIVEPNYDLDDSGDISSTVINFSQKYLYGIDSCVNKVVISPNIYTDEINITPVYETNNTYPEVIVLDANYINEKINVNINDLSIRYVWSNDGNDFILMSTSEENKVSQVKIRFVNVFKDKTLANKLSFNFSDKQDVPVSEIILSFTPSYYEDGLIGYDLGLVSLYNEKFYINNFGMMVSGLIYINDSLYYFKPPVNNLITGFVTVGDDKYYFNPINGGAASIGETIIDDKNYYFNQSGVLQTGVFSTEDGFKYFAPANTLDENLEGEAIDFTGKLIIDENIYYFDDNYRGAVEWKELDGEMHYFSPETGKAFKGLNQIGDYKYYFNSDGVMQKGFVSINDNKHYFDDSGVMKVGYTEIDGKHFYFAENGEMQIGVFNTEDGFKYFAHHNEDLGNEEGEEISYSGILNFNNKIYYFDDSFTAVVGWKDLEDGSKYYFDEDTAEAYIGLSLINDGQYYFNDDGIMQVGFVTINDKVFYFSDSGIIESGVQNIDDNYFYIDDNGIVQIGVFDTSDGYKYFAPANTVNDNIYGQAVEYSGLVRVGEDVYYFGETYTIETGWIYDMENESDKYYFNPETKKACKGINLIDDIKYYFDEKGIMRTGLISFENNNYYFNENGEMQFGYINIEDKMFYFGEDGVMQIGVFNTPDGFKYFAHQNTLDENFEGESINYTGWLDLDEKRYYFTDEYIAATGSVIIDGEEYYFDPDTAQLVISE

B1: EV029104 (antibody, human IgG1, lambda, V domains shown)
VH: EVQLVESGGGLVQPGGSLRLSCAASGLTINSYWMNWVRQIPGKGLEWVANINPTGSQQYYVDSVRGRFTISRDDAKKSLFLQLDSLRVEDTAVYYCARGRRGNSAYCDSWGQGTQVTVSS
VL: QSALTQPRSVSGSPGQSVTISCTGTSSDIGAYDYVSWYRHHPGKAPKLIIFDVAKWPSGVPDRFSGSKSGNTASLTISGLQDDDEGDYYCCSYAGRFSLIFGGGTKLTVLG
notes: also called anti-toxin B antibody EV029104
[1]
  binding result: binds
[2]
  neutralizing activity (EC50 value), rounding of toxin B-exposed IMR-90 cells: ≤ 100 ng/mL

B2: EV029105a (antibody, human IgG1, kappa, V domains shown)
VH: QVQLVQSGAEVKKPGSSVKVSCKASGDTFSSHAITWVRQAPGQGLEWMGRIIPIFSISDYAQKFQGRVTFTADKSTSIAFMELSSLRSQDTAVYYCARSLLAYCTGGSCSEFGAEDHWGQGTLVTVSS
VL: EIVLTQSPGTLSLSPGERATLSCRASQSVSSNYLAWYQQKPGQAPRLLIFGASSRATGIPDRFSGSGSGTDFTLTISRLEPEDFAVYYCQQYGSSIPVTFGQGTKVEIKR
notes: also called anti-toxin A antibody EV029105a
[3]
  Kd: 0.151 nM
  koff: 9.89e-05 s⁻¹
  kon: 653000 M⁻¹ s⁻¹
[4]
  EC50 (ng/mL), neutralizing activity against the cytotoxicity of toxin A to IMR-90 cells (cell rounding): 4.92 ng/mL
  EC50, neutralizing activity against the cytotoxicity of toxin A to IMR-90 cells (cell rounding): 0.033 nM
[5]
  binding result: binds

From patent US20150259402A1 (EVEC, published 2015)
